From patent publication US20260146094A1 (CHIA TAI TIANQING PHARMACEUTICAL GROUP, published 2026) come the findings set out here.

For test [1], the target named is T1, macaque c-Met on macaque epithelial cell 4MBr-5 (macaque).
T1 construct: whole, on cells; also called 4MBr-5 cell
Nature of the test: flow cytometry on 4MBr-5 macaque epithelial cells. Background: Flow cytometry measures light scatter and fluorescence of single cells or particles in a stream.

Test [2] concerns the target T2, Human c-Met-His (SinoBiological, product catalog No. 10692-H08H) (human, UniProt P08581 25-932).
T2 construct: Bought protein; also called human c-Met-His protein; c-Met-His protein; not shown: His tag
Nature of the test: competitive ELISA, coated human c-Met-His, blocking of biotin-HGF. The procedure:
(§1) After the plate was washed, an HRP-conjugated streptavidin (eBioscience, product catalog No. 18-4100-51) was added. The plate was incubated at 25° C. for 1 h and then washed 5 times, and a TMB substrate solution (TIANGEN, product catalog No. PA107) was added at 100 μL/well for color development. The light absorption signal values at the wavelength of 450 nm and the reference wavelength of 650 nm were measured. A curve (FIG. 2A) was fit, and the IC₅₀ values (Table 4) were calculated.

Test [3] has as its target T2, Human c-Met-His (SinoBiological, …). Kind of test: competitive ELISA, coated human c-Met-His, blocking of HGFβ. The procedure:
as §1
A curve (FIG. 2B) was fit based on the results, and the IC₅₀ values were calculated (Table 4).
(In general: An ELISA detects its analyte on a solid surface through an enzyme-linked reagent.)

Test [4] has as its target human c-Met on natural human tumor cell lines (H1993, MKN45, KP4, H441) (human, UniProt P08581 25-1390). Kind of test: cell-based or functional assay.

T2 sequence (P08581 25-932 limits assumed): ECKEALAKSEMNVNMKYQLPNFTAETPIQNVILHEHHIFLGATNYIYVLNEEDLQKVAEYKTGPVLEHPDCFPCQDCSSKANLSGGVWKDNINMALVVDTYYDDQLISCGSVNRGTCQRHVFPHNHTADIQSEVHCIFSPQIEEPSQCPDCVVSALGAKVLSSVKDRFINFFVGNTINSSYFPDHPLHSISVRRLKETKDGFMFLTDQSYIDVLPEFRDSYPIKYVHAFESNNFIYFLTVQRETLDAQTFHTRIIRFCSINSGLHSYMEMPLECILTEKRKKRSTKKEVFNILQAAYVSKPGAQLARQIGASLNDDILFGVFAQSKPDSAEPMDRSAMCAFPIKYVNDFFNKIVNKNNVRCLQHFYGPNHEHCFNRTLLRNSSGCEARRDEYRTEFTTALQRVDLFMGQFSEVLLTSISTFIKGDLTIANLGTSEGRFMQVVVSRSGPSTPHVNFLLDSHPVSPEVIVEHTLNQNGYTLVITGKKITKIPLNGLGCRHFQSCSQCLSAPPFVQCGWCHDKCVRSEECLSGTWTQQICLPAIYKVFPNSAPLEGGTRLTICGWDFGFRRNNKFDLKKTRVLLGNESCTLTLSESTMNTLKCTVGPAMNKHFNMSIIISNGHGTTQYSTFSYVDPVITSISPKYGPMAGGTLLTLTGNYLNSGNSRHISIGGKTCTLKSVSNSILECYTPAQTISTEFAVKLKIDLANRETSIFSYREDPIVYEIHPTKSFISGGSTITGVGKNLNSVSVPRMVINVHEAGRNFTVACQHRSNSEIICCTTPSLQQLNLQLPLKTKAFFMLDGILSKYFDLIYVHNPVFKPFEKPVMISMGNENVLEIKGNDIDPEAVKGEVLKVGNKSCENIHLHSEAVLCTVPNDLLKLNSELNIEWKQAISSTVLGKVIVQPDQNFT
human c-Met on natural human tumor cell lines (H1993, MKN45, KP4, H441), sequence (P08581 25-1390): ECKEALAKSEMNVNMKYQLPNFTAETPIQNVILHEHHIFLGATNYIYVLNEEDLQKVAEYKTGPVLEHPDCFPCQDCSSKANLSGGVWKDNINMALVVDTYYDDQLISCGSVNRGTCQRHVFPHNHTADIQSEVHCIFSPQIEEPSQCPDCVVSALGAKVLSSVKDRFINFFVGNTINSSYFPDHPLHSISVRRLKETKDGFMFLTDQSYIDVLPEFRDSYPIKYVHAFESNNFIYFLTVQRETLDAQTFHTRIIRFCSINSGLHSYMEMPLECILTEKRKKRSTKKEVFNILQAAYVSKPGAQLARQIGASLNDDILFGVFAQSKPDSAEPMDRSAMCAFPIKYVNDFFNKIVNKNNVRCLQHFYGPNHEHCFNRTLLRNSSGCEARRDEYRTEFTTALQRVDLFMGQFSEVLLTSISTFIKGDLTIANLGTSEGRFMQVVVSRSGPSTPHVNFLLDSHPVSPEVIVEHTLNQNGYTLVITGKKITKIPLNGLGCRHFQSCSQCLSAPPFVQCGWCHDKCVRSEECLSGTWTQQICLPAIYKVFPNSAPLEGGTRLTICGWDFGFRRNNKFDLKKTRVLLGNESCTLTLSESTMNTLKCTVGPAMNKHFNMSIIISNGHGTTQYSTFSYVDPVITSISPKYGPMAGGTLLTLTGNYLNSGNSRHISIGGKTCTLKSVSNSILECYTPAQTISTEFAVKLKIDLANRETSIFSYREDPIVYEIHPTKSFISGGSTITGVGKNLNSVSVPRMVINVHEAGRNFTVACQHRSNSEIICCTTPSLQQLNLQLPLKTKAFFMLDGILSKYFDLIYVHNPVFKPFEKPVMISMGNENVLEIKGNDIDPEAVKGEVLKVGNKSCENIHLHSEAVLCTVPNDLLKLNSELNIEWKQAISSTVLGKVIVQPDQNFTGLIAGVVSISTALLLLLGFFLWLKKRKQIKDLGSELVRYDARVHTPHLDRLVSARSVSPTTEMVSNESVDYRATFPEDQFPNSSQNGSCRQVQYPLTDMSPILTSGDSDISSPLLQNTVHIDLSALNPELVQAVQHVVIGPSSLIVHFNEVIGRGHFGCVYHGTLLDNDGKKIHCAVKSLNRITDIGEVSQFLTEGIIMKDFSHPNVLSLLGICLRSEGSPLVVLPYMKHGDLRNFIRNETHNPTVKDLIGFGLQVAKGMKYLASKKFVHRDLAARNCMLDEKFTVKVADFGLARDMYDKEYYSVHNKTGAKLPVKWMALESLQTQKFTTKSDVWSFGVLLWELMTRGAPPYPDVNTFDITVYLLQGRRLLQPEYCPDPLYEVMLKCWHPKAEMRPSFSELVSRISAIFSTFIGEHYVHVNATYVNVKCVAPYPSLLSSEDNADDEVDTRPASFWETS

B1: 1B-1C7-Fc (antibody, human IgG1, V domains shown)
VH: QVQLVESGGGLVQPGGSLRLSCAASGYSYSANCVGWFYQAPGKEREGVAAINTGGETATYADFVKGRFTISQDYAKNTVYLQMNSLKSEDTGMYYCAAVGTRKYWDECSLSQHAYKNWGQGTLVTVSS
notes: also called anti-human c-Met VHH-Fc chimeric antibody 1B-1C7-Fc
B1: the EC50 (as a rule, the concentration that produces a half-maximal response) in test [1] amounted to 0.071 nM.

B2: 1B-3B11-Fc (antibody, human IgG1, V domains shown)
VH: QVQLVESGGGSVQAGGSLRLSCVVSGYTYSSVAWFRQTPGKEREGVAVINPGGDNTDYTYAVKGRFTISRDSAKSTVFLQMNNLESEDTAMYYCAAGRTFGGTWMDRNKWKYWGQGTLVTVSS
notes: Expressed in CHO; also called anti-human c-Met VHH-Fc chimeric antibody 1B-3B11-Fc
In turn, B2 came in with a concentration giving a half-maximal response (EC50) in test [1] of 0.736 nM. Against the preceding molecule, the EC50 is about 10-fold higher.

B3: 1B-1B6-Fc (antibody, human IgG1, V domains shown)
VH: QVQLVESGGDSVQAGGSLRLSCAASAHAYSSGCMGWFRQAPGKGREGVATIYTRNDFTYYSDSVKGRFTISRDDAKNTVYLQVNSLKAEDTAMYYCAAGSPFRYAGAWNVCGLKEEDYNYWGQGTLVTVSS
notes: also called anti-human c-Met VHH-Fc chimeric antibody 1B-1B6-Fc
B3: the EC50 in test [1] worked out at 0.682 nM.

B4: 1B-1A8-Fc (antibody, human IgG1, V domains shown)
VH: EVQLVESGGGLVQPGGSLRLSCVASGFTFKSYAMDWVRQAPGKGLEWIAGINSAGSPSYEASVKGRFTISRDNAENTLYLQLNSLKTEDTAMYYCTKCRDFRSPYCRPGQGTLVTVSS
notes: also called anti-human c-Met VHH-Fc chimeric antibody 1B-1A8-Fc
For the molecule B4, in test [2], the 50% inhibitory concentration (IC50) (as a rule, the concentration at which inhibition is half-maximal) stood at 3.14 nM and the Maximum blocking rate is 63%. The molecule further came in with an EC50 in test [1] of 0.471 nM. In test [3], this molecule registered a half-inhibitory concentration (IC50) of 3.56 nM and a Maximum blocking rate of 75%. Besides, in test [4], the “Phosphorylation inhibition IC50 (nM), H441 cells, Phospho-c-Met (Tyr1234/1235) AlphaLISA” value was determined as 0.85 nM and the “Phosphorylation inhibition, Maximum inhibition rate, H441 cells” value is 90%.

B5: 1B-1B2-Fc (antibody, human IgG1, V domains shown)
VH: EVQLVESGGGSVQAGGSLRLSCTASGFTFDMGWYRQAPGDECELVSSISSDGNSDYLDSVKGRFTISQDNAKNTVYLQMNSLKPEDTAVYYCAANGAGHLVLRPLCGSNAVDAWGQGTLVTVSS
notes: also called anti-human c-Met VHH-Fc chimeric antibody 1B-1B2-Fc
As for B5, in test [1], the 50% effective concentration (EC50) came to 0.418 nM.

B6: 3B-1C7-Fc (antibody, human IgG1, V domains shown)
VH: QVQLVESGGDSVQAGGSLRLSCIASGFTFDGTTMGWYRQAPGDECELVSDISSDGNTYYSDSVKGRFTISQGNAKNTVYLQMNSLTPEDTAVYYCAAAEFRLLLRPLCRQDDYGYWGQGTLVTVSS
notes: also called anti-human c-Met VHH-Fc chimeric antibody 3B-1C7-Fc
Molecule B6 gave an EC50 in test [1] of 0.284 nM.
